Measured values taken from patent publication US20220402995A1 (TOSOH, published 2022).

B1: AAV-binding protein No. 1 (Asn324Asp) (receptor)
chain: MGSAGESVQITLPKDEVQLNAYVLQEPPKGETYTYDWQLITHPRDYSGEMEGKHSQILKLSKLTPGLYEFKVIVEGQNAHGEGYVNVTVKPEPRKNRPPIAIVSPQFQEISLPTTSTVIDGSQSTDDDKIVQYHWEELKGPLREEKISEDTAILKLSKLVPGNYTFSLTVVDSDGATNSTTANLTVNKAVDHHHHHH
B2: AAV-binding protein No. 6 (Trp346Leu) (receptor)
chain: MGSAGESVQITLPKNEVQLNAYVLQEPPKGETYTYDLQLITHPRDYSGEMEGKHSQILKLSKLTPGLYEFKVIVEGQNAHGEGYVNVTVKPEPRKNRPPIAIVSPQFQEISLPTTSTVIDGSQSTDDDKIVQYHWEELKGPLREEKISEDTAILKLSKLVPGNYTFSLTVVDSDGATNSTTANLTVNKAVDHHHHHH
B3: AAV-binding protein No. 5 (Asp345Asn) (receptor)
chain: MGSAGESVQITLPKNEVQLNAYVLQEPPKGETYTYNWQLITHPRDYSGEMEGKHSQILKLSKLTPGLYEFKVIVEGQNAHGEGYVNVTVKPEPRKNRPPIAIVSPQFQEISLPTTSTVIDGSQSTDDDKIVQYHWEELKGPLREEKISEDTAILKLSKLVPGNYTFSLTVVDSDGATNSTTANLTVNKAVDHHHHHH
B4: AAV-binding protein No. 8 (His351Leu) (receptor)
chain: MGSAGESVQITLPKNEVQLNAYVLQEPPKGETYTYDWQLITLPRDYSGEMEGKHSQILKLSKLTPGLYEFKVIVEGQNAHGEGYVNVTVKPEPRKNRPPIAIVSPQFQEISLPTTSTVIDGSQSTDDDKIVQYHWEELKGPLREEKISEDTAILKLSKLVPGNYTFSLTVVDSDGATNSTTANLTVNKAVDHHHHHH
B5: AAV-binding protein No. 3 (Lys338Glu) (receptor)
chain: MGSAGESVQITLPKNEVQLNAYVLQEPPEGETYTYDWQLITHPRDYSGEMEGKHSQILKLSKLTPGLYEFKVIVEGQNAHGEGYVNVTVKPEPRKNRPPIAIVSPQFQEISLPTTSTVIDGSQSTDDDKIVQYHWEELKGPLREEKISEDTAILKLSKLVPGNYTFSLTVVDSDGATNSTTANLTVNKAVDHHHHHH
B6: AAV-binding protein No. 10 (Arg353Cys) (receptor)
chain: MGSAGESVQITLPKNEVQLNAYVLQEPPKGETYTYDWQLITHPCDYSGEMEGKHSQILKLSKLTPGLYEFKVIVEGQNAHGEGYVNVTVKPEPRKNRPPIAIVSPQFQEISLPTTSTVIDGSQSTDDDKIVQYHWEELKGPLREEKISEDTAILKLSKLVPGNYTFSLTVVDSDGATNSTTANLTVNKAVDHHHHHH
B7: AAV-binding protein No. 4 (Tyr344His) (receptor)
chain: MGSAGESVQITLPKNEVQLNAYVLQEPPKGETYTHDWQLITHPRDYSGEMEGKHSQILKLSKLTPGLYEFKVIVEGQNAHGEGYVNVTVKPEPRKNRPPIAIVSPQFQEISLPTTSTVIDGSQSTDDDKIVQYHWEELKGPLREEKISEDTAILKLSKLVPGNYTFSLTVVDSDGATNSTTANLTVNKAVDHHHHHH
B8: AAV-binding protein No. 2 (Tyr331Cys) (receptor)
chain: MGSAGESVQITLPKNEVQLNACVLQEPPKGETYTYDWQLITHPRDYSGEMEGKHSQILKLSKLTPGLYEFKVIVEGQNAHGEGYVNVTVKPEPRKNRPPIAIVSPQFQEISLPTTSTVIDGSQSTDDDKIVQYHWEELKGPLREEKISEDTAILKLSKLVPGNYTFSLTVVDSDGATNSTTANLTVNKAVDHHHHHH
B9: AAV-binding protein No. 7 (Leu348Pro) (receptor)
chain: MGSAGESVQITLPKNEVQLNAYVLQEPPKGETYTYDWQPITHPRDYSGEMEGKHSQILKLSKLTPGLYEFKVIVEGQNAHGEGYVNVTVKPEPRKNRPPIAIVSPQFQEISLPTTSTVIDGSQSTDDDKIVQYHWEELKGPLREEKISEDTAILKLSKLVPGNYTFSLTVVDSDGATNSTTANLTVNKAVDHHHHHH

These binders were tested against T1, VLP2 (virus-like particles of AAV2) (AAV2, UniProt P03135 1-735; P03135 1-598; P03135 1-533) (assay: ELISA on VLP2; binding after 43°C 15 min / untreated).
T1 construct: Empty AAV2 capsid; background says about 60 protein molecules, VP1:VP2:VP3 = 1:1:10; Immobilised on the ELISA plate
T1 sequence (P03135 whole entry, chain 1 of 3): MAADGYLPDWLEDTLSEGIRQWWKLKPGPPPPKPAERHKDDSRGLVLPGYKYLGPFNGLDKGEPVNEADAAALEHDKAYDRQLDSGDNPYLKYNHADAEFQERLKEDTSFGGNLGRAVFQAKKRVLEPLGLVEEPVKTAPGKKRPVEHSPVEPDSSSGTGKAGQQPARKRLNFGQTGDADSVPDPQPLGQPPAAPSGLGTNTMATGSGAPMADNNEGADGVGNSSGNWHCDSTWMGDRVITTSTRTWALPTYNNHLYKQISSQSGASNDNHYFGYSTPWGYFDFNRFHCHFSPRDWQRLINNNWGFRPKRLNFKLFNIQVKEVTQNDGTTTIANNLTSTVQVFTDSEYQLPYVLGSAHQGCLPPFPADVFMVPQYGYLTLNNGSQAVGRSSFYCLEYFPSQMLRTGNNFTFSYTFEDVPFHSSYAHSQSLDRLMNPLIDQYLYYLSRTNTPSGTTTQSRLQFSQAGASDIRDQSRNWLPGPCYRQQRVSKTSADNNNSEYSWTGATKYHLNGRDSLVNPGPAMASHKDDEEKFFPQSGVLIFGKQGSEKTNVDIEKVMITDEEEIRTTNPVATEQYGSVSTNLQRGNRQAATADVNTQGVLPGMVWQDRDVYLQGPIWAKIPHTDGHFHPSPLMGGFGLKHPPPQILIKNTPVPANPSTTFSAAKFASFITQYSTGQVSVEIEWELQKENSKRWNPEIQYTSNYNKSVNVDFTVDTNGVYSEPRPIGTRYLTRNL
T1 sequence (P03135 139-735, tags left off, chain 2 of 3): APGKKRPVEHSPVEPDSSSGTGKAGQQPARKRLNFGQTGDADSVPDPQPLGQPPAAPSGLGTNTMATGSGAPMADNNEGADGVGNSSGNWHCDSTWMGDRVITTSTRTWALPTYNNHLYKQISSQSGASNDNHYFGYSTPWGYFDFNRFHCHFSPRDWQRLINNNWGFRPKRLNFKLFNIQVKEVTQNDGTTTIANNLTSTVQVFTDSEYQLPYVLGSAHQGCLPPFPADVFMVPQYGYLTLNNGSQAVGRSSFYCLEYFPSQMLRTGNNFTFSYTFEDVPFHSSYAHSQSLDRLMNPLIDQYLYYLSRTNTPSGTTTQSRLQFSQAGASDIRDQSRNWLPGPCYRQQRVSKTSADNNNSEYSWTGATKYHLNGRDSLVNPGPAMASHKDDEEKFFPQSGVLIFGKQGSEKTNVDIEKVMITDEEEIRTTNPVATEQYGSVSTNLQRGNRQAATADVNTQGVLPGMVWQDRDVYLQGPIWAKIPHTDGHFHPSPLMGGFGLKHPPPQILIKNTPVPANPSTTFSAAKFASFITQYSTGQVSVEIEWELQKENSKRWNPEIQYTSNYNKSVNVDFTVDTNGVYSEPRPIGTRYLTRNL
T1 sequence (P03135 203-735, chain 3 of 3): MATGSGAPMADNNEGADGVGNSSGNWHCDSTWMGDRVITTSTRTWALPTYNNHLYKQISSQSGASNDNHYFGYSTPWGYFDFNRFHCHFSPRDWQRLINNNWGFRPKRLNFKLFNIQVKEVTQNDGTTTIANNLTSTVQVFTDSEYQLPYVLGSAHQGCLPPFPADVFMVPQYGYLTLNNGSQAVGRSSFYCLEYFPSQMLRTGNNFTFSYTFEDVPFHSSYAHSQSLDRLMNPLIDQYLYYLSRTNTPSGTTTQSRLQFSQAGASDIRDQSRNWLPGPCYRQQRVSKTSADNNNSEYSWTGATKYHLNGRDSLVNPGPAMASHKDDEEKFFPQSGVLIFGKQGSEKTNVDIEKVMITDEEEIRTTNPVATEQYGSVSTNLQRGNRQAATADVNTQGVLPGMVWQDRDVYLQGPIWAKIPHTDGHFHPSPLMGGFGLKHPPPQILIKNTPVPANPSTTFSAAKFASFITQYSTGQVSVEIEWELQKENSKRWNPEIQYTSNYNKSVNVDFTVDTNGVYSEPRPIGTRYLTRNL

With B1 as the binder, how does the “Residual activity [%]” value read?
The value was 46%.

With B2 as the binder, how does the “Residual activity [%]” value read?
The value was 85.7%.

Which “Residual activity [%]” value does the source give for B3 here?
The value was 71.4%.

B4 was tested. Which “Residual activity [%]” value did it give?
Its value is 68.7%.

For B5, which “Residual activity [%]” value is on record?
Its value is 52.6%.

Which “Residual activity [%]” value does the source give for B6 here?
The value was 84.3%.

How did the “Residual activity [%]” value turn out when B7 was run?
Its value is 88.2%.

B8 was tested. Which “Residual activity [%]” value did it give?
The value was 73.4%.

Which “Residual activity [%]” value does the source give for B9 here?
The value was 69.6%.
